Patent publication US20180155451A1 (published 2018)

T1: FcγRIIb (human, UniProt P31994 43-217)
T1 construct: extracellular domain; also called 2b; FcgRIIb
T1 sequence (looked up): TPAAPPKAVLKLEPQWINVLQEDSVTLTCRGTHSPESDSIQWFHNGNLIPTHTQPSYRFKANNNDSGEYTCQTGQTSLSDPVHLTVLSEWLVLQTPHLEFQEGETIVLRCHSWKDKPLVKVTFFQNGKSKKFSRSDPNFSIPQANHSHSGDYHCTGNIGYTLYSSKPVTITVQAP

B1: GpH7-B3 variant T335_13S/GpL16-k0 (antibody, human IgG1, kappa)
heavy: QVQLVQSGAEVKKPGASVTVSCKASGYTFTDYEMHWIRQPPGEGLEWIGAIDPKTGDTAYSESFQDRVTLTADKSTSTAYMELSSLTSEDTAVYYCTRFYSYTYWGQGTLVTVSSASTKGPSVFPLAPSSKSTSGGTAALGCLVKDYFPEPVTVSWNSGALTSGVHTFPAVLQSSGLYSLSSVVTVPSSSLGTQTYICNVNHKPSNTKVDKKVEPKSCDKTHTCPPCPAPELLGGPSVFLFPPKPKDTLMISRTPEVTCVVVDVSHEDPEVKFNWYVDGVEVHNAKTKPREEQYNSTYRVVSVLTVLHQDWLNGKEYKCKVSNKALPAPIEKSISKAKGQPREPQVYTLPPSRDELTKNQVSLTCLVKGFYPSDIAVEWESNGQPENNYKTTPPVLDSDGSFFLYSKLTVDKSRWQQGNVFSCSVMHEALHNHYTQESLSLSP
light: DIVMTQSPLSLPVTPGEPASISCQASESLVHSNRNTYLHWYLQKPGQSPQLLIYKVSNRFSGVPDRFSGSGSGTDFTLKISRVEAEDVGVYYCSQNTHVPPTFGQGTKVEIERTVAAPSVFIFPPSDEQLKSGTASVVCLLNNFYPREAKVQWKVDNALQSGNSQESVTEQDSKDSTYSLSSTLTLSKADYEKHKVYACEVTHQGLSSPVTKSFNRGEC
notes: also called Ho Ab T335_13S
B2: GpH7-B3 variant V266_06M/GpL16-k0 (antibody, human IgG1, kappa)
heavy: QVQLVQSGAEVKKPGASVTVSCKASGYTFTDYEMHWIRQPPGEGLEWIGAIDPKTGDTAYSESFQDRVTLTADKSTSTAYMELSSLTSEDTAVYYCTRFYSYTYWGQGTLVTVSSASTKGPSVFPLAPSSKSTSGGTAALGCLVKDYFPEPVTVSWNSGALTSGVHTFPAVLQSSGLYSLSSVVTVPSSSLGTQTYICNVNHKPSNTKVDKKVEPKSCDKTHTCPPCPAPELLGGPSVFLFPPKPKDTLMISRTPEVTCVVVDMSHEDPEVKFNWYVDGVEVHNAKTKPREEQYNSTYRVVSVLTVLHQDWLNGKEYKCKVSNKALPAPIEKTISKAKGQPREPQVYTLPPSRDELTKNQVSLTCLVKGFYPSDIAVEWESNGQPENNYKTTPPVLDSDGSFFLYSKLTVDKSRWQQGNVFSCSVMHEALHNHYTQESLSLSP
light: B1 light
notes: also called Ho Ab V266_06M
B3: GpH7-B3 variant Y296_20W/GpL16-k0 (antibody, human IgG1, kappa)
heavy: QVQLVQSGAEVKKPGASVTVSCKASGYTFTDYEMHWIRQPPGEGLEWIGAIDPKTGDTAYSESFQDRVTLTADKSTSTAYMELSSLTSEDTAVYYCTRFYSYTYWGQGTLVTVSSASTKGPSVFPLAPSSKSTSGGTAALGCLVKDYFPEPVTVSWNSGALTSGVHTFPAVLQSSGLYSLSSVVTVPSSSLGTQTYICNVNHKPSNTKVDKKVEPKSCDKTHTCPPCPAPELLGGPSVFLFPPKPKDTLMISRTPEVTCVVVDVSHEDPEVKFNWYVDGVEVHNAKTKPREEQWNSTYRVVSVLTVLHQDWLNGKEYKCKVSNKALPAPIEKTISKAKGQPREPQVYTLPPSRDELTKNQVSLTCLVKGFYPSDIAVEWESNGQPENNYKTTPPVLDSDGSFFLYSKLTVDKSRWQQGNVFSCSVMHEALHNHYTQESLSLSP
light: B1 light
notes: also called Ho Ab Y296_20W
B4: GpH7-B3 variant T335_19Q/GpL16-k0 (antibody, human IgG1, kappa)
heavy: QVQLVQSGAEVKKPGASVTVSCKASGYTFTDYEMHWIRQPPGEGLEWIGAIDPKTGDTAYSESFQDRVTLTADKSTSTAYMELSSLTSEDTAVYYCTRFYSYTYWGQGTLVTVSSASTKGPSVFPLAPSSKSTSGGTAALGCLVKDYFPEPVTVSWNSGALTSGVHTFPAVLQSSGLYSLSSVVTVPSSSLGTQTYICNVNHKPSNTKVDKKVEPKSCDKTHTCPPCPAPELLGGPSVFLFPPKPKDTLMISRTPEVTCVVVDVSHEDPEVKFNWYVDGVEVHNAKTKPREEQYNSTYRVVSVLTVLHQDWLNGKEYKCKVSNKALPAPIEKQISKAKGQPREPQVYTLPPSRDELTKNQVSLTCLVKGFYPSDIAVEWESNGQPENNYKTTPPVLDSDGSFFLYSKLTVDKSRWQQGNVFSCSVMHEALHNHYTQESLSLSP
light: B1 light
notes: also called Ho Ab T335_19Q
B5: GpH7-B3 variant T335_20W/GpL16-k0 (antibody, human IgG1, kappa)
heavy: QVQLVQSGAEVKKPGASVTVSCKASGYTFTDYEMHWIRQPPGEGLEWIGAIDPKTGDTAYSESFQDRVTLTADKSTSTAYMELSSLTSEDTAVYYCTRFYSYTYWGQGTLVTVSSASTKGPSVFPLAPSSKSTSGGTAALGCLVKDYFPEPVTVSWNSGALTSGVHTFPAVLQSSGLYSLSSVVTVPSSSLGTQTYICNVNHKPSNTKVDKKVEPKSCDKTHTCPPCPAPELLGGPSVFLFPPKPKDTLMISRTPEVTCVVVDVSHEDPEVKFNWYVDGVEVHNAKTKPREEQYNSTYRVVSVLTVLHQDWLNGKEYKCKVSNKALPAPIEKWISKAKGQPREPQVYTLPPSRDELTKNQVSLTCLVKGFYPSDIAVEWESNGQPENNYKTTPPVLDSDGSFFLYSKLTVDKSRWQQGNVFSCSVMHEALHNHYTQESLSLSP
light: B1 light
notes: also called Ho Ab T335_20W
B6: GpH7-B3 variant T335_18N/GpL16-k0 (antibody, human IgG1, kappa)
heavy: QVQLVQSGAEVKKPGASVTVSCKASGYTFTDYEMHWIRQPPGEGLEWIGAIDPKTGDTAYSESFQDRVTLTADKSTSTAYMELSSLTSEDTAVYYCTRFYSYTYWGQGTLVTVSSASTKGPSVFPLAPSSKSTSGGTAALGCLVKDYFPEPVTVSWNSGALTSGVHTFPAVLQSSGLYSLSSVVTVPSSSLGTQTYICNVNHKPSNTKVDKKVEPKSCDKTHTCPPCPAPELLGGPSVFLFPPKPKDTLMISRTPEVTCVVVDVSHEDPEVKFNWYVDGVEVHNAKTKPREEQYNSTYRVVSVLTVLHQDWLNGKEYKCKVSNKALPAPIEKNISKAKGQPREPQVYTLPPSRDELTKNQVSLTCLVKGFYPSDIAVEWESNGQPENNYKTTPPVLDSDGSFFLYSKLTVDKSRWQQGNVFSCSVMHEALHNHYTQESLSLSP
light: B1 light
notes: also called Ho Ab T335_18N
B7: GpH7-B3 variant T335_16H/GpL16-k0 (antibody, human IgG1, kappa)
heavy: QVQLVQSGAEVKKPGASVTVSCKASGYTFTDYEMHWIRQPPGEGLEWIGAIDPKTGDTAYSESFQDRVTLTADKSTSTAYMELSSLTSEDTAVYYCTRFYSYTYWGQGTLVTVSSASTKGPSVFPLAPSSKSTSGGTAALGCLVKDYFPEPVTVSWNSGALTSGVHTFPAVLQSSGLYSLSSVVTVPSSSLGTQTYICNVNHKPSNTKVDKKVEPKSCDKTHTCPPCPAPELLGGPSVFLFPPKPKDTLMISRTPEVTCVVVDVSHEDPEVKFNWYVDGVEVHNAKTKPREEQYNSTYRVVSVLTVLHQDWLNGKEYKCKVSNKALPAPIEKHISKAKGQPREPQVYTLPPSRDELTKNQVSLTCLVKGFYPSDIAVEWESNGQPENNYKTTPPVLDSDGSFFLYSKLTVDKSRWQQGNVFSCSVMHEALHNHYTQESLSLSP
light: B1 light
notes: also called Ho Ab T335_16H
B8: GpH7-B3 variant T335_15Y/GpL16-k0 (antibody, human IgG1, kappa)
heavy: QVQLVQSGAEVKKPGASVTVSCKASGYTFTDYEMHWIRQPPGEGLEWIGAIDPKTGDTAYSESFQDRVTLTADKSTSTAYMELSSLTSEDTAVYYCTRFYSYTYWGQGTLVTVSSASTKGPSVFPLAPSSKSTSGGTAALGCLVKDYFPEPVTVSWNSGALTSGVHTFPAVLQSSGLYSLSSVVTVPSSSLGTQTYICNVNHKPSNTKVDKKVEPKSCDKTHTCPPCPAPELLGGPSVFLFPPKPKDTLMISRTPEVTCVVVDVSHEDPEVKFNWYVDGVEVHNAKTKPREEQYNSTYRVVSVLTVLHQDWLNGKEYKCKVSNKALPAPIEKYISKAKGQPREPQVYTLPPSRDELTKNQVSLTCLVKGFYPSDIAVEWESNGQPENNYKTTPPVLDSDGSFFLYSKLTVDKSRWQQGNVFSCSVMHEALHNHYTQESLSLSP
light: B1 light
notes: also called Ho Ab T335_15Y
B9: GpH7-A5/GpH7-B3 variant G237_02A/GpL16-k0 (antibody, human IgG1, kappa)
heavy 1: not shown
heavy 2: not shown
light: B1 light
notes: also called He Ab G237_02A
B10: GpH7-A5/GpH7-B3 variant A330_01G/GpL16-k0 (antibody, human IgG1, kappa)
heavy 1: not shown
heavy 2: not shown
light: B1 light
notes: also called He Ab A330_01G
B11: GpH7-A5/GpH7-B3 variant H268_15Y/GpL16-k0 (antibody, human IgG1, kappa)
heavy 1: not shown
heavy 2: not shown
light: B1 light
notes: also called He Ab H268_15Y
B12: GpH7-A5/GpH7-B3 variant H268_03V/GpL16-k0 (antibody, human IgG1, kappa)
heavy 1: not shown
heavy 2: not shown
light: B1 light
notes: also called He Ab H268_03V
B13: GpH7-A5/GpH7-B3 variant N325_07I/GpL16-k0 (antibody, human IgG1, kappa)
heavy 1: not shown
heavy 2: not shown
light: B1 light
notes: also called He Ab N325_07I
B14: GpH7-A5/GpH7-B3 variant L234_20W/GpL16-k0 (antibody, human IgG1, kappa)
heavy 1: not shown
heavy 2: not shown
light: B1 light
notes: also called He Ab L234_20W
B15: GpH7-A5/GpH7-B3 variant L234_09D/GpL16-k0 (antibody, human IgG1, kappa)
heavy 1: not shown
heavy 2: not shown
light: B1 light
notes: also called He Ab L234_09D
B16: GpH7-A5/GpH7-B3 variant N325_03V/GpL16-k0 (antibody, human IgG1, kappa)
heavy 1: not shown
heavy 2: not shown
light: B1 light
notes: also called He Ab N325_03V
B17: GpH7-A5/GpH7-B3 variant K326_20W/GpL16-k0 (antibody, human IgG1, kappa)
heavy 1: not shown
heavy 2: not shown
light: B1 light
notes: also called He Ab K326_20W
B18: GpH7-A5/GpH7-B3 variant L328_09D/GpL16-k0 (antibody, human IgG1, kappa)
heavy 1: not shown
heavy 2: not shown
light: B1 light
notes: also called He Ab L328_09D
B19: GpH7-A5/GpH7-B3 variant N325_04F/GpL16-k0 (antibody, human IgG1, kappa)
heavy 1: not shown
heavy 2: not shown
light: B1 light
notes: also called He Ab N325_04F
B20: GpH7-A5/GpH7-B3 variant L328_10E/GpL16-k0 (antibody, human IgG1, kappa)
heavy 1: not shown
heavy 2: not shown
light: B1 light
notes: also called He Ab L328_10E
B21: GpH7-A5/GpH7-B3 variant I332_14T/GpL16-k0 (antibody, human IgG1, kappa)
heavy 1: not shown
heavy 2: not shown
light: B1 light
notes: also called He Ab I332_14T
B22: GpH7-A5/GpH7-B3 variant G237_19Q/GpL16-k0 (antibody, human IgG1, kappa)
heavy 1: not shown
heavy 2: not shown
light: B1 light
notes: also called He Ab G237_19Q
B23: GpH7-A5/GpH7-B3 variant N325_13S/GpL16-k0 (antibody, human IgG1, kappa)
heavy 1: not shown
heavy 2: not shown
light: B1 light
notes: also called He Ab N325_13S
B24: GpH7-A5/GpH7-B3 variant H268_05P/GpL16-k0 (antibody, human IgG1, kappa)
heavy 1: not shown
heavy 2: not shown
light: B1 light
notes: also called He Ab H268_05P
B25: GpH7-A5/GpH7-B3 variant G237_08L/GpL16-k0 (antibody, human IgG1, kappa)
heavy 1: not shown
heavy 2: not shown
light: B1 light
notes: also called He Ab G237_08L
B26: GpH7-A5/GpH7-B3 variant L235_15Y/GpL16-k0 (antibody, human IgG1, kappa)
heavy 1: not shown
heavy 2: not shown
light: B1 light
notes: also called He Ab L235_15Y
B27: GpH7-A5/GpH7-B3 variant G237_15Y/GpL16-k0 (antibody, human IgG1, kappa)
heavy 1: not shown
heavy 2: not shown
light: B1 light
notes: also called He Ab G237_15Y

What follows are binders tested against T1, FcγRIIb (assay: SPR (Biacore), binding relative to GpH7-B3/GpL16-k0 = 100).
Description: (§1) Analysis of interaction between objective antibody and the FcγR was carried out using Biacore T100 (GE Healthcare). HBS-EP+ (GE Healthcare) was used as the running buffer, and the measurement temperature was set to 25° C. Chips produced by immobilizing the antigen peptide by the amine coupling method to a Series S Sencor Chip CM5 (GE Healthcare), or alternatively, chips produced by allowing preliminarily biotinylated antigen peptides to interact with and immobilize onto a Series S Sensor Chip SA (certified) (GE Healthcare) were used. Antibodies of interest were captured onto an antigen peptide-immobilized chip, and allowed to interact to each FcγR diluted with running buffer. To regenerate and repeatedly use the chip, the antibodies captured on the chip were washed off by reacting 10 mM glycine-HCl, pH 1.5.
(§2) The FcγR-binding activity of each antibody was assessed primarily using as an indicator the FcγR-binding activity and dissociation constant for FcγR.

Ho/Con_2b	Binder
95.2 % of control	B1
231 % of control	B2
103 % of control	B3
97.3 % of control	B4
94.4 % of control	B5
96.1 % of control	B6
97.2 % of control	B7
104 % of control	B8

The binders below were run against T1, FcγRIIb (assay: SPR (Biacore), binding relative to GpH7-A5/GpH7-B3/GpL16-k0 = 100).
Description: as §1, §2

He/Con_2b	Binder
124 % of control	B9
104 % of control	B10
106 % of control	B11
114 % of control	B12
171 % of control	B13
114 % of control	B14
150 % of control	B15
111 % of control	B16
148 % of control	B17
199 % of control	B18
143 % of control	B19
172 % of control	B20
106 % of control	B21
108 % of control	B22
177 % of control	B23
116 % of control	B24
148 % of control	B25
149 % of control	B26
152 % of control	B27
